Reference: patent US12551573B2, “Compositions and methods for the targeting of PCSK9” (Scribe Therapeutics Inc., priority 2022, dated 2026)

B1: DOMAIN_17775 (protein, listed as Camelus dromedarius)
chain: MPQGSVSFKDVTVDFTQEEWQQLDSAQKALYRDVMLENYCHFVSVGFHMTKPDMIHKLEQGKELWTTGRIFPSRSYLGESV
B2: DOMAIN_17264 (protein)
chain: CEVSVSFEDVTVDFSREEWQHLDPAQRRLYRDVTLENYSHLCSVGYQVPKPEVIFKLEQGEGPWTLEEETPHQSCSDEDMG
modifications: Vicugna pacos
B3: DOMAIN_18670 (protein, listed as Neomonachus schauinslandi)
chain: LQVSVSFEDVTVDFSREEWQHLDPAQRRLYRDVTLENYSHLHSVGYQVPKPEVIFKLEQGEGPWTLEGETPHQGCSDEAIG
B4: DOMAIN_17548 (protein, listed as Neomonachus schauinslandi)
chain: VQGSMSFEDVIVEFTQDEWQYMSPAQRILYRDVMLENYSHLISVGYCTTKPEMIFKLEQGEEPWSLEEEFLNQRYPGYFSV
B5: DOMAIN_19388 (protein, listed as Physeter macrocephalus)
chain: MTFEDVAVEFTRWEWGQLDPTQKDVYREVMLENFKNLASLGFPMSKPYVICRLEEGEEPCILEREISTGAPADWERRRQAK
B6: DOMAIN_17474 (protein, listed as Monodelphis domestica)
chain: QVPVTFEDLAVRFSAEEWHLLEEWQREFHRDVMRENYEMLVSLGTAQLLPLSAFLSLTEPQEDMGDNGCSDGEWERPGGGL
B7: DOMAIN_17180 (protein, listed as Zalophus californianus)
chain: FQDSVTFEDVAVRFSSGEWQCLTRAQRHLYADVMLENYGNMISVGFAVPKPPLISHLEQGAEPCVQDLQDGGFLSCSFPVS
B8: DOMAIN_18979 (protein, listed as Pongo sp.)
chain: CYQDSVTFDDVAVDFTQEEWTLLDSTQRSLYSDVMLENYKNLATVGGQIIKPSLISWLEQEESKTVQGGVLQGRKTQWRGT
B9: DOMAIN_18693 (protein, listed as Camelus dromedarius)
chain: GQESVSFKDVTVDFTWDEWLQLTGMQRTLYRDVMLENYSHLVSVGCCITKPEVIFKLEQGEEPWPREGELPGRRDPDRSQE
B10: DOMAIN_17689 (protein)
chain: MAFEDVAVYFSQEEWGLLDTAQRALYRRVMLENFTLVTSLGLSTSRPHVVIQLERGEEPWVPSGKDMTLARNTYRRLNAGE
modifications: Cercocebus atys
B11: DOMAIN_17801 (protein, listed as Pongo sp.)
chain: EPGAVSFADVAVYFCREEWGCLRPAQRALYRDVMRETYGHLSALGIGGNKPALISWVEEEAELWDPAAQDPEVAKCQTEAD
B12: DOMAIN_18923 (protein, listed as Callithrix jacchus)
chain: ASGTLTFDDVALYFSEQEWEILEKWQKQMYKQEMKTNYETLDSLGYAFSKPDLITWMEKGRMLLISDQGRLHKTKRTAGPP
B13: DOMAIN_18459 (protein, listed as Monodelphis domestica)
chain: GQEEVAFKDVAVDFTREEWRLLSPPQKELYKEVMLENIRNLLSVGLPAPPEDMISYLEQREAPWMLEQEGLRSYSPGEEIR
B14: DOMAIN_18726 (protein, listed as Myotis davidii)
chain: PNALVTFQDVFVDFSPEELASLSAAQRRLHREVTLENYRNLVSLGYQFPRPDIITQLEEEESSAMEEDSNTKTGPDWETGP
B15: DOMAIN_17497 (protein, listed as Monodelphis domestica)
chain: AQEVVSFKDVAVDFTREEWRLLSPPQKELYKEVMLENARNLLSVGLPAPSEEVISYLEQREAPWILEQEGLRNCCSEGEIR
B16: DOMAIN_18646 (protein, listed as Monodelphis domestica)
chain: VKEVVTLQDVAVDFTWEEWRLLSPPQKELYREVMLENAQNLLSVGLPAPLEDVLSYLEQRKGPWMLEQKRLRSCCPGEIRL
B17: DOMAIN_17234 (protein)
chain: PENGVTFEDIALYFSWEEWKLLDEAQRRLYHDVMLENFALISSLGVWSGEENVEASFEQSVSVVMSQVRTSKEPSSSQKTH
modifications: Delphinapterus leucas
B18: DOMAIN_17534 (protein)
chain: SQGSVSFKDVTVDFTQEEWQQLDPAQKALYRDVMLENYCHFVSVGFHMTKPDMIRKLEQGEELWTQRIFPSYSYLAEDGKT
modifications: Cercocebus atys
B19: DOMAIN_22459 (protein, listed as Monodelphis domestica)
chain: SQGPVKFEDVAIYLWKEEWELMDSTQKRLYRQVMLETYENVLSVGTPHDKPAMIVHLEQGETAWSPALQRPGKEKGRLHGH
B20: DOMAIN_22483 (protein, listed as Aotus trivirgatus)
chain: TQESLTLEDVAVEFSWEEWQLLDTAQKDLYRDVMVENYNHLVSLGYQTSKPDALSKLAHGQEPWMTDAKIQNKNCPGIRKV
B21: DOMAIN_22311 (protein, listed as Monodelphis domestica)
chain: AQEVVSFKDVAVDFTREEWRLLSPPQKELYKEVMLENARNLLSVGLSAPPEDMFSSLEQREAPWMLEKDDLRSCCPEGKMR
B22: DOMAIN_21909 (protein, listed as Suricata suricatta)
chain: AHHLVMFRDVAVDFSQDEWECLNSYQRNLYRDVILENYSNLVSVAGCSISKPDVITLLEQGREPWMVVRDERRRRTLDLES
B23: DOMAIN_22527 (protein, listed as Tursiops truncatus)
chain: VQASLSFEDVAVHFTWEEWQLLDPSQKDLYRNVMWENYCNLVSVGYQTPKPDSFFQLEQGEPPWTVEGAGQSQTCPGTRAS
B24: DOMAIN_22375 (protein, listed as Tursiops truncatus)
chain: PQGCAISEDVFVYFSREEWVLLDEDQRLLYRDVMLENFALLASLGITSSRSYLVTQLEQGEEPWMPAQVDMTAATEKEAQK
B25: DOMAIN_20336 (protein, listed as Panthera pardus)
chain: SQGTVSFKDVAVNFTQEEWQYLDLPQRDLYKDVMLENYTNLISVGYQTTKPSVIHKLEQGEEPWMVEREIPNWSYAEETWQ
B26: DOMAIN_21095 (protein, listed as Trichechus manatus)
chain: LKASVSFKDVAVELTQEEWQHMGPAQRTLYRDVMLENYSHLVSVGYCIFKPEVIFKLEQGEQPWFLEQEFSNQSYPEDYNI
B27: DOMAIN_21583 (protein, listed as Sarcophilus harrisii)
chain: ALESVTFQDVAVNFTHEEWGHLKPAQKDLYREVMMENYQNFVSLGLPFSKPHVISQLEKGEAPWITEKASLVPRVSCQDFF
B28: DOMAIN_22454 (protein, listed as Monodelphis domestica)
chain: AQEVVTFKDVAVDFTREEWCLLSPPQKELYKEVMLENAQNLLSVGLPGPPEDVISYLKQRKDPWMLEQEGLRSCCPEGEIR
B29: DOMAIN_21277 (protein, listed as Aotus trivirgatus)
chain: PQDLMTFDDVAVEFTQWEWGQLNPAQKDLYREVMLENFRNLTLLGLLVSKPYMICQLEEGGEPFMVNTEISVGAHSDWERR
B30: DOMAIN_19563 (protein, listed as Papio anubis)
chain: AQMLVTFKDVAVTFTQEEWRQLDLTQRTLYREVMLETCGLLVSLGHRVPKPELVHLLEHGQELWTVKRGLSDPTCAGDRTQ
B31: DOMAIN_22495 (protein, listed as Callorhinus ursinus)
chain: CEGLVSFEDVTMDFSREEWQQLDPAQRCLYWDVMLEIYSHLLSVGYHIPNPEIISRMEKGKKSWIRGAQLPHQRHREVVFG
B32: DOMAIN_19699 (protein, listed as Otolemur garnettii)
chain: LQGSVSFKDVTVDFTQEEWQQLDPAQKALYRDVMLENYCHFVSVGFHMTKPDMIRRLEQGEELWTERIFPGQSYLEEDGKA
B33: DOMAIN_22278 (protein, listed as Pteropus vampyrus)
chain: KPEDVSFAEVAVYFSLDEWGYLWPAQRALYRDVMRETYGHFGELGFPGPKPALISWMEQESEAWSPAAQDPEEGESVGGAV
B34: DOMAIN_20025 (protein, listed as Carlito syrichta)
chain: LQGSVSFKDVTVDFTQEEWHQLNPAQKALYRDVMLENYCHFISVGFHMTKPDMIRKLEQGEELWTERIFSRQSHLEEDGKA
B35: DOMAIN_92 (protein, listed as Pan paniscus)
chain: FGNLLGVPWAQGNSALPEGLLSFKDISMEFTWDEWQLLDSTQKYLYRDVILENYHNLISVGYHGTKPDLIFKLEQGEDPWI
B36: DOMAIN_31643 (protein, listed as Micrurus lemniscatus)
chain: FREVSVYFSEEEWSWLDPDQKALYWEVMLENHRNMASLGDDGQENKDSYELLQGITARDTMETSAIEMEVERYKEKQSDDWNQESSSCTDDSV
B37: DOMAIN_143 (protein, listed as Pan paniscus)
chain: MAAMPLKAQYQEMVTFEDVAVHFTKTEWTGLSPAQRALYRSVMLENFGNLTALGYPVPKPALISLLEGGDMAWGLEAQDDP

The molecules below were run on HBEGF locus. Conditions: high-throughput screen of dXR repression of the HBEGF gene; abundance of each domain in the library before and after diphtheria toxin selection; HEK293T cells.
Format: cell-based, human

Molecule | Log2 (fold change)
B1 | 2.6595
B2 | 3.0866
B3 | 3.1792
B4 | 2.8002
B5 | 3.2831
B6 | 2.683
B7 | 2.945
B8 | 2.0034
B9 | 3.0179
B10 | 3.6469
B11 | 2.9733
B12 | 2.2053
B13 | 3.1352
B14 | 2.9362
B15 | 2.8088
B16 | 2.4678
B17 | 2.0152
B18 | 2.9374

Same assay, conditions: high-throughput screen of dXR repression of the HBEGF gene; abundance of each domain in the library before vs after diphtheria toxin selection; listed domains met p-value <0.01 and log2(fold change) >2

Molecule | Log2 (fold change)
B19 | 2.9261
B20 | 2.1702
B21 | 2.9903
B22 | 3.2301
B23 | 2.989
B24 | 2.5484
B25 | 2.3293
B26 | 2.5003
B27 | 3.1529
B28 | 2.6042
B29 | 2.7115
B30 | 2.5522
B31 | 2.2623
B32 | 2.8474
B33 | 3.3575
B34 | 2.2451

Same assay, conditions: high-throughput screen of dXR repression of the HBEGF gene; change in abundance of each domain in the library before and after diphtheria toxin selection

Molecule | Log2 (fold change)
B35 | 2.1475
B36 | 3.8782
B37 | 3.63
